According to US20160303217A1 (ENGINEERED ANTIGENS, published 2016):

What was measured:
porcine transferrin [1] = molecular target: T1, porcine transferrin (porcine, UniProt P09571 1-696); assay: isothermal calorimetry, surface plasmon resonance or biolayer interferometry
T1 construct: also called pTf; porcine Tf

porcine transferrin [2] = molecular target: T1, porcine transferrin; assay: affinity capture from cell lysate on porcine Tf-Sepharose, SDS-PAGE
porcine transferrin [3] = molecular target: T1, porcine transferrin; assay: solid-phase (dot) binding assay with HRP-conjugated porcine transferrin; also capture on porcine Tf-Sepharose

T1 sequence (P09571 whole entry): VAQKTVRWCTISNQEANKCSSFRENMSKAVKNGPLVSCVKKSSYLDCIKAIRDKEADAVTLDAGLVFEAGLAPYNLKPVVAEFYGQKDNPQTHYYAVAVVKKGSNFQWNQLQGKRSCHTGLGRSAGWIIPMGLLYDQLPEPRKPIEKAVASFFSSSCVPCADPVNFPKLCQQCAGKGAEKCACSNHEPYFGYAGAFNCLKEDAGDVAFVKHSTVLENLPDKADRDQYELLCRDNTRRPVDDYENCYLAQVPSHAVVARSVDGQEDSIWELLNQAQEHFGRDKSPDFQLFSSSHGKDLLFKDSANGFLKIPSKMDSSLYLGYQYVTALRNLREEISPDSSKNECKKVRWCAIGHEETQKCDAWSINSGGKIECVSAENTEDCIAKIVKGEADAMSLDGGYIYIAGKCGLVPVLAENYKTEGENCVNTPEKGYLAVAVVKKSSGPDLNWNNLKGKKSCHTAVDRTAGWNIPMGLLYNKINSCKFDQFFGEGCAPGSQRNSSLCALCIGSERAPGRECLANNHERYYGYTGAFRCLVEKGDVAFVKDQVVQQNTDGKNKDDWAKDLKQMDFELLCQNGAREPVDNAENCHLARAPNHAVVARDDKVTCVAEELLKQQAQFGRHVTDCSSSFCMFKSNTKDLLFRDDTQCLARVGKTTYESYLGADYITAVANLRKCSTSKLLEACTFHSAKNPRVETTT

| Binder | fold increase in the affinity constant (Kd) against the native TbpB (porcine transferrin [1]) [fold] | further results |
| --- | --- | --- |
| Y167A mutant of H. parasuis TbpB 27-577 derived from the Nagasaki strain Hp5 (receptor, also called Y167A TbpB; Y167A mutant TbpB) CSGGKGSFDLEDVQPNKTTGVSKEEYKDVETDKKVKEQLGELMEPALGYVVKVPVSQSGVKRTEISNPEAITDEDLNKIPNYEIIKGVAYPNYGELVDKTAAETMKYVRSGYVIDVYHSGTRDKGYVFYKGITPSKELPQGPALTYQGEWDFTSDANLNNEEGRPTALNDDYYTTWIGKRAGLVSGDAKPSKHKYTSQFKVDFATKKMTGKLSDKEKTIYTVNADIRGNRFTGSATASDKDKGKGASYNFFSVDSQSLEGGFYGPKAEEMAGKFVADDKSLFAVFSAKHNASNVNTVRIIDASKIDLTNFSISELTNFGDASVLIIDGKKMELAGSEFTNKHTIDINGKKMVAVACCSNLEYMKFGQLWQQTEGEKQVKDNSLFLQGERTATDKMPKDGNYKYIGTWDAQVSKENNYWVATADDDRKAGYRTEFDVDFGSKNLSGKLFDKNGVNPVFTVNAKIDGNGFTGEAKTSDAGFVLDPGSLRHDNVKFSDVAVSGGFYGPTAAELGGQFRYQSDNGSVGVGAVFGAKQQVKK | 100 |  |
| W176A mutant of H. parasuis TbpB 27-577 derived from the Nagasaki strain Hp5 (receptor, also called W176A mutation in the TbpB from H. parasuis strain HP5) CSGGKGSFDLEDVQPNKTTGVSKEEYKDVETDKKVKEQLGELMEPALGYVVKVPVSQSGVKRTEISNPEAITDEDLNKIPNYEIIKGVAYPNAGELVDKTAAETMKYVRSGYVIDVYHSGTRDKGYVFYKGITPSKELPQGPALTYQGEWDFTSDANLNNEEGRPTYLNDDYYTTAIGKRAGLVSGDAKPSKHKYTSQFKVDFATKKMTGKLSDKEKTIYTVNADIRGNRFTGSATASDKDKGKGASYNFFSVDSQSLEGGFYGPKAEEMAGKFVADDKSLFAVFSAKHNASNVNTVRIIDASKIDLTNFSISELTNFGDASVLIIDGKKMELAGSEFTNKHTIDINGKKMVAVACCSNLEYMKFGQLWQQTEGEKQVKDNSLFLQGERTATDKMPKDGNYKYIGTWDAQVSKENNYWVATADDDRKAGYRTEFDVDFGSKNLSGKLFDKNGVNPVFTVNAKIDGNGFTGEAKTSDAGFVLDPGSLRHDNVKFSDVAVSGGFYGPTAAELGGQFRYQSDNGSVGVGAVFGAKQQVKK | 100 |  |
| Y174A mutant of A. pleuropneumoniae TbpB 26-528 derived from strain H87 (receptor) VNYTDEETQKRKKEELDKLMEPALGYVTKIPVNIPSVRKTEISEIDTVTDESLSLVPNEDKLRTIANENYGSVVTKSGSNTMNFVRSGYTIDVVHYGLRDKGYVYYKGVHPSKELPKGNIIVYQGEWDFTSNADLDAKRPNYNPEFNGAGAGQRVGVTSADAKERTYISKFNIDFSNKKLNGQLLTKTKENQEKLRYTVEANISGNRFRGKATATDKTDPILGKDSEHLEGGLYGPKSEELAGKFVAHDKSLFAVFSGKRGNDVLETVKIIDASKIDLTTFESSELNNFGNANVLIIDGQKIDLAGADFKNRKTVDINGKTMVAIACCSNLEYMKFGQLWQKEGEQTKDNSLFLQGERTATDKIPVGGNYKYVGTWDALVSKGTNWVAEADNNRESGYRSEFDVNFGDKKVSGKLFDKGGIVPVFMINADIKGNGFTGTANTTDTGFALDSGSSQHGNAVFSDIKVNGGFYGPTAGELGGQFHHKSDNGSVGAVFG | 100 |  |
| A. suis TbpB 27-577 (amino acid 27-577) derived from strain H57, purified recombinant truncated protein (receptor, also called AsH57 TbpB; TbpB from Actinobacillus suis) SYQDEETKKKTKEELDKLMEPTLGVEAKIPRRNRALFDKEGNRKATPDTTDELSEAQIMAIWNENIDEIPHLKELNDKTTSGLIYHSHDGKQEDKKRNLQYVRSGYVFDESYSEIVKNKNGVPYIFKNGIDGYIYYLGTSPSKELPKGNKVTYKGTWDFTSDVKTSYELSGFSDAGNGKNVAATSISDNVNRDHKVGEKLGDNEVKGVAHSSEFAVDFDNKKLTGSLYRNGYINRNKAQEVTKRYSIEADITGNRFTGKAKAEKAGDPIFTDSNYLEGGFYGPKAEEMAGKFFTNNKSLFAVFAAKSENGETTTERIIDATKIDLTQFNAKELNNFGDASVLIIDGQKIDLAGVNFKNSKTVEINGKTMVAVACCSNLEYMKFGQLWQKEGKQQVKDNSLFLQGERTATDKMPAGGNYKYVGTWDALVSKGTNWIAEADNNRESGYRTEFDVNFSDKKVNGKLFDKGGVNPVFTVDATINGNGFIGSAKTSDSGFALDAGSSQHGNAVFSDIKVNGGFYGPTAGELGGQFHHKSDNGSVGAVFGA |  | Kd (porcine transferrin [1]): ~120 nM |
| engineered (loop-reduced) TbpB N-lobe from Actinobacillus pleuropneumoniae strain H87, fusion protein with N-terminal maltose binding protein and polyhistidine … (receptor, also called engineered TbpB N-lobe H87; not shown: N-terminal polyhistidine region of the custom expression vector; TEV (tobacco etch virus) cleavage site) GSKLMEPALGYVTKIPVGPGSEISEIDTVTDESVSGAPGVVNSGYTIDVVHYGLRDKGSVSYKGVHPSKELPKGNIIVYQGEWDFTSNAGAAGRVGVTSADAKERTYISKFNIDFSNKKLNGQLLTKTKENQEKLRYTVEANISGNRFRGKATATDKTDPILGKDSEHLEGGLYGPKSEELAGKFVAHDKSLFAVFSGKRGNDVL |  | binding result (porcine transferrin [2]): no binding |
| F171A mutant of ApH49 TbpB 20-528 (receptor, also called F171A mutation in the TbpB from A. pleuropneumoniae strain H49) GVSKEEYKDVETAKKEKEQLGELMEPALGYVVKVPVSSFENKKVDISDIEVITNGNLDDVPYKANSSKYNYPDIKTKDSSLQYVRSGYVIDGEHSGSNEKGYVYYKGNSPAKELPVNQLLTYTGSWDFTSNANLNNEEGRPNYLNDDYYTKAIGKRVGLVSGDAKPAKHKYTSQFEVDFATKKMTGKLSDKEKTIYTVNADIRGNRFTGAATASDKNKGKGESYNFFSADSQSLEGGFYGPKAEEMAGKFVANDKSLFAVFSAKHNGSNVDTVRIIDASKIDLTNFSISELNNFGDASVLIIDGKKIKLAGSGFTNKHTIEINGKTMVAVACCSNLEYMKFGQLWQQAEGGKPENNSLFLQGERTATDKMPKGGNYKYIGTWDAQVSKENNWVATADDDRKAGYRTEFDVDFGNKNLSGKLFDKNGVNPVFTVDAKIDGNGFTGKAKTSDAGFALDSGSSRYENVKFNDVAVSGGFYGPTAAELGGQFHHKSENGSVGAVFG | 100 |  |
| engineered (loop-reduced) TbpB N-lobe from Actinobacillus pleuropneumoniae strain H49, fusion protein with N-terminal maltose binding protein and polyhistidine … (receptor, also called engineered TbpB N-lobe H49; modified N-lobe; not shown: N-terminal polyhistidine region of the custom expression vector; TEV (tobacco etch virus) cleavage site) GSGVSKEEYKDVETAKKEKEQLGELGELMEPALGYVVKVPVSAGKKVDISDIEVITNGNLDDVPYKANSSKYNYPDIKTKDSSLQYVRSGYVISPDGGYVYYKGNSPAKELPVNQLLTYTGSWDFTSNANLNAARPAGAGKRVGLVSGDAKERKYTSQFEVDFATKKMTGKLSDKEKTIYTVNADIRGNRFTGAATASDKNDPILSADSQSLEGGFYGPKAEEMAGKFVANDKSLFAVFSAKHNGSNV |  | binding result (porcine transferrin [2]): no binding |
| native TbpB N-lobe from Actinobacillus pleuropneumoniae strain H49, fusion protein with N-terminal maltose binding protein and polyhistidine tag (receptor, also called Mbp-TbpB N-lobe; native h49 TbpB N-lobe; not shown: N-terminal polyhistidine region of the custom expression vector; TEV (tobacco etch virus) cleavage site) CSGGKGSFDLEDVRPNKTTGVSKEEYKDVETAKKEKEQLGELMEPALGYVVKVPVSSFENKKVDISDIEVITNGNLDDVPYKANSSKYNYPDIKTKDSSLQYVRSGYVIDGEHSGSNEKGYVYYKGNSPAKELPVNQLLTYTGSWDFTSNANLNNEEGRPNYLNDDYYTKFIGKRVGLVSGDAKPAKHKYTSQFEVDFATKKMTGKLSDKEKTIYTVNADIRGNRFTGAATASDKNKGKGESYNFFSADSQSLEGGFYGPKAEEMAGKFVANDKSLFAVF |  | binding result (porcine transferrin [3]): binds |
